Earlier results, collected in article PMC7395068, “The evolution of strategies to minimise the risk of human drug-induced liver injury (DILI) in drug discovery and development” (Archives of Toxicology, 2020).

conditions: in vivo

Row | Molecule | DILI +VE (5-8), DILI -VE (-4) | DILI severity category
1 | idursulfase (protein, UniProt P22304 34-455; P22304 456-550, looked up) Iduronate 2-sulfatase 42 kDa …: TDALNVLLIIVDDLRPSLGCYGDKLVRSPNIDQLASHSLLFQNAFAQQAVCAPSRVSFLTGRRPDTTRLYDFNSYWRVHAGNFSTIPQYFKENGYVTMSVGKVFHPGISSNHTDDSPYSWSFPPYHPSSEKYENTKTCRGPDGELHANLLCPVDVLDVPEGTLPDKQSTEQAIQLLEKMKTSASPFFLAVGYHKPHIPFRYPKEFQKLYPLENITLAPDPEVPDGLPPVAYNPWMDIRQREDVQALNISVPYGPIPVDFQRKIRQSYFASVSYLDTQVGRLLSALDDLQLANSTIIAFTSDHGWALGEHGEWAKYSNFDVATHVPLIFYVPGRTASLPEAGEKLFPYLDPFDSASQLMEPGRQSMDLVELVSLFPTLAGLAGLQVPPRCPVPSFHVELCREGKNLLKHFRFRDLEEDPYLPG Iduronate 2-sulfatase 14 kDa …: NPRELIAYSQYPRPSDIPQWNSDKPSLKDIKIMGYSIRTIDYRYTVWVGFNPDEFLANFSDIHAGELYFVDSDPLQDHNMYNDSQGGDLFQLLMP | -VE | vNo-DILI-Concern
2 | imiglucerase (protein, UniProt P04062 40-536, looked up, variant R495H) Lysosomal acid …: ARPCIPKSFGYSSVVCVCNATYCDSFDPPTFPALGTFSRYESTRSGRRMELSMGPIQANHTGTGLLLTLQPEQKFQKVKGFGGAMTDAAALNILALSPPAQNLLLKSYFSEEGIGYNIIRVPMASCDFSIRTYTYADTPDDFQLHNFSLPEEDTKLKIPLIHRALQLAQRPVSLLASPWTSPTWLKTNGAVNGKGSLKGQPGDIYHQTWARYFVKFLDAYAEHKLQFWAVTAENEPSAGLLSGYPFQCLGFTPEHQRDFIARDLGPTLANSTHHNVRLLMLDDQRLLLPHWAKVVLTDPEAAKYVHGIAVHWYLDFLAPAKATLGETHRLFPNTMLFASEACVGSKFWEQSVRLGSWDRGMQYSHSIITNLLYHVVGWTDWNLALNPEGGPNWVRNFVDSPIIVDITKDTFYKQPMFYHLGHFSKFIPEGSQRVGLVASQKNDLDAVALMHPDGSAVVVVLNRSSKDVPLTIKDPAVGFLETISPGYSIHTYLWHRQ | -VE | vNo-DILI-Concern
3 | interferon gamma-1b (protein, UniProt P01579 24-161, looked up) Interferon gamma: QDPYVKEAENLKKYFNAGHSDVADNGTLFLGILKNWKEESDRKIMQSQIVSFYFKLFKNFKDDQSIQKSVETIKEDMNVKFFNSNKKKRDDFEKLTNYSVTDLNVQRKAIHELIQVMAELSPAAKTGKRKRSQMLFRG | -VE | Ambiguous DILI-concern
4 | laronidase (protein, UniProt P35475 28-653, looked up) Alpha-L-iduronidase: APHLVHVDAARALWPLRRFWRSTGFCPPLPHSQADQYVLSWDQQLNLAYVGAVPHRGIKQVRTHWLLELVTTRGSTGRGLSYNFTHLDGYLDLLRENQLLPGFELMGSASGHFTDFEDKQQVFEWKDLVSSLARRYIGRYGLAHVSKWNFETWNEPDHHDFDNVSMTMQGFLNYYDACSEGLRAASPALRLGGPGDSFHTPPRSPLSWGLLRHCHDGTNFFTGEAGVRLDYISLHRKGARSSISILEQEKVVAQQIRQLFPKFADTPIYNDEADPLVGWSLPQPWRADVTYAAMVVKVIAQHQNLLLANTTSAFPYALLSNDNAFLSYHPHPFAQRTLTARFQVNNTRPPHVQLLRKPVLTAMGLLALLDEEQLWAEVSQAGTVLDSNHTVGVLASAHRPQGPADAWRAAVLIYASDDTRAHPNRSVAVTLRLRGVPPGPGLVYVTRYLDNGLCSPDGEWRRLGRPVFPTAEQFRRMRAAEDPVAAAPRPLPAGGRLTLRPALRLPSLLLVHVCARPEKPPGQVTRLRALPLTQGQLVLVWSDEHVGSKCLWTYEIQFSQDGKAYTPVSRKPSTFNLFVFSPDTGAVSGSYRVRALDYWARPGPFSDPVPYLEVPVPRGPPSPGNP | -VE | Ambiguous DILI-concern
5 | pegademase bovine (protein, UniProt P56658 2-363, looked up, PEG conjugate) Adenosine deaminase: AQTPAFNKPKVELHVHLDGAIKPETILYYGRKRGIALPADTPEELQNIIGMDKPLSLPEFLAKFDYYMPAIAGCREAVKRIAYEFVEMKAKDGVVYVEVRYSPHLLANSKVEPIPWNQAEGDLTPDEVVSLVNQGLQEGERDFGVKVRSILCCMRHQPSWSSEVVELCKKYREQTVVAIDLAGDETIEGSSLFPGHVKAYAEAVKSGVHRTVHAGEVGSANVVKEAVDTLKTERLGHGYHTLEDATLYNRLRQENMHFEVCPWSSYLTGAWKPDTEHPVVRFKNDQVNYSLNTDDPLIFKSTLDTDYQMTKNEMGFTEEEFKRLNINAAKSSFLPEDEKKELLDLLYKAYGMPSPASAEQCL | -VE | vNo-DILI-Concern
6 | pegaspargase (protein, UniProt P00805 23-348, looked up, PEG conjugate) L-asparaginase 2: LPNITILATGGTIAGGGDSATKSNYTVGKVGVENLVNAVPQLKDIANVKGEQVVNIGSQDMNDNVWLTLAKKINTDCDKTDGFVITHGTDTMEETAYFLDLTVKCDKPVVMVGAMRPSTSMSADGPFNLYNAVVTAADKASANRGVLVVMNDTVLDGRDVTKTNTTDVATFKSVNYGPLGYIHNGKIDYQRTPARKHTSDTPFDVSKLNELPKVGIVYNYANASDLPAKALVDAGYDGIVSAGVGNGNLYKSVFDTLATAAKTGTAVVRSSRVPTGATTQDAEVDDAKYGFVASGTLNPQKARVLLQLALTQTKDPQQIQQIFNQY | +VE | vLess-DILI-Concern
7 | pegfilgrastim (protein, UniProt P09919 31-207, looked up, N-terminal Met; PEG) Granulocyte …: TPLGPASSLPQSFLLKCLEQVRKIQGDGAALQEKLVSECATYKLCHPEELVLLGHSLGIPWAPLSSCPSQALQLAGCLSQLHSGLFLYQGLLQALEGISPELGPTLDTLQLDVADFATTIWQQMEELGMAPALQPTQGAMPAFASAFQRRAGGVLVASHLQSFLEVSYRVLRHLAQP | -VE | vNo-DILI-Concern
8 | pegvisomant (protein, UniProt P01241 27-217, looked up, variant H18D H21N Q22N F25S K41I Y42H L45W Q46W G120K R167N D171S E174S I179T, PEGylated) Somatotropin: FPTIPLSRLFDNAMLRADRLNNLASDTYQEFEEAYIPKEQIHSFWWNPQTSLCFSESIPTPSNREETQQKSNLELLRISLLLIQSWLEPVQFLRSVFANSLVYGASDSNVYDLLKDLEEKIQTLMGRLEDGSPRTGQIFKQTYSKFDTNSHNDDALLKNYGLLYCFNKDMSKVSTFLRTVQCRSVEGSCGF | -VE | Ambiguous DILI-concern
9 | rasburicase (protein, UniProt Q00511 2-302, looked up) Uricase: SAVKAARYGKDNVRVYKVHKDEKTGVQTVYEMTVCVLLEGEIETSYTKADNSVIVATDSIKNTIYITAKQNPVTPPELFGSILGTHFIEKYNHIHAAHVNIVCHRWTRMDIDGKPHPHSFIRDSEEKRNVQVDVVEGKGIDIKSSLSGLTVLKSTNSQFWGFLRDEYTTLKETWDRILSTDVDATWQWKNFSGLQEVRSHVPKFDATWATAREVTLKTFAEDNSASVQATMYKMAEQILARQQLIETVEYSLPNKHYFEIDLSWHKGLQNTGKNAEVFAPQSDPNGLIKCTVGRSSLKSKL | -VE | vNo-DILI-Concern
10 | tenecteplase (protein, UniProt P00750 36-562, looked up, variant T103N N117Q K296A H297A R298A R299A) Tissue-type plasminogen …: SYQVICRDEKTQMIYQQHQSWLRPVLRSNRVEYCWCNSGRAQCHSVPVKSCSEPRCFNGGTCQQALYFSDFVCQCPEGFAGKCCEIDTRATCYEDQGISYRGNWSTAESGAECTNWQSSALAQKPYSGRRPDAIRLGLGNHNYCRNPDRDSKPWCYVFKAGKYSSEFCSTPACSEGNSDCYFGNGSAYRGTHSLTESGASCLPWNSMILIGKVYTAQNPSAQALGLGKHNYCRNPDGDAKPWCHVLKNRRLTWEYCDVPSCSTCGLRQYSQPQFRIKGGLFADIASHPWQAAIFAAAAASPGERFLCGGILISSCWILSAAHCFQERFPPHHLTVILGRTYRVVPGEEEQKFEVEKYIVHKEFDDDTYDNDIALLQLKSDSSRCAQESSVVRTVCLPPADLQLPDWTECELSGYGKHEALSPFYSERLKEAHVRLYPSSRCTSQHLLNRTVTDNMLCAGDTRSGGPQANLHDACQGDSGGPLVCLNDGRMTLVGIISWGLGCGQKDVPGVYTKVTNYLDWIRDNMRP | -VE | vNo-DILI-Concern
